Columns and labels:
IGFBP-3 = target: T1, IGFBP-3 (Homo sapiens, UniProt P17936); experiment: VN-peptide array: binding of IGFBP-3 to immobilized overlapping 16-mer VN peptides; conditions: spot stronger than negative controls = positive hit
T1 construct: purchased GroPep
Description: (§1) The inventors designed small-molecule VN-peptides that could potentially disrupt the formation of the IGF-I:IGFBP:VN trimeric or the IGF-II:VN dimeric complexes by binding to the IGFBPs and/or IGF-II and preventing their association with VN within the complex. To design peptides, the binding sites of IGFBP-3/-5 and IGF-II on VN were first determined using VN-peptide arrays. The entire VN protein sequence, excluding the signal peptide (residues 1-19), was divided into overlapping 16-mer peptides with 3AA frameshift/offset (for peptide sequences refer to Table 6) and immobilized onto cellulose membranes (peptide spotting was outsourced to PepMetric Technologies Inc). For a schematic of the arrangement of VN peptides and controls refer to FIG. 2. The resultant peptide arrays were incubated either with IGFBP-3, IGFBP-5 or IGF-II ligands, probed with the respective antibodies, the membranes developed using ECL, and imaged using the ChemiDoc™ XRS system (BioRad). The spots on the membrane were analysed using TotalLab array quantification software (TotalLab Ltd, Newcastle, England) identifying positive peptide spots by comparing each spot to the combined intensities of the negative controls.
(§2) The entire VN protein sequence, excluding the signal peptide (residues 1-19), was divided into overlapping 16-mer peptides with 3 amino acid (AA) frameshift/offset. This yielded 148 overlapping peptides covering the entire VN sequence (residues 20-478) (Table 6) with a resolution of 3 AA. Peptide synthesis and spotting onto a cellulose membrane were outsourced to PepMetric Technologies Inc. (Richmond, BC, Canada). For a diagrammatic illustration of the strategy used to divide an example amino acid sequence into peptides and to spot them onto the membrane, please refer to http://www.pepmetric.com/html/Pep-Overlap.html. The VN-overlapping peptides were generated using FMOC (9-fluorenylmethoxycarbonyl) Solid-Phase SPOT synthesis onto PEG-grafted amine-functionalized cellulose membrane (Whatman® 540 filter paper). The peptides were spotted onto the cellulose membrane in a 10×16 grid with each peptide being 10˜50 nM in concentration with >70% purity. Finally, these membranes were acetylated in order to cap the free ends of the spotted peptides preventing them from degradation during shipping and storage.
(§3) Along with the VN-peptides these membranes were also spotted with a positive control (i.e., universal binding peptides tested by the manufacturer to be positive for antibodies from goat, mouse, rat and chicken) and a negative control (ie. non-binding peptides as well as BSA) controls. For a schematic of the arrangement of VN-peptides and controls refer to FIG. 2 and for the sequence of each peptide corresponding to the grid number refer to Table 6. Four such replicate membranes were prepared and stored at room temperature in a clip sealed plastic bag. Long-term storage was at −20° C.
(§4) Methanol or ethanol was used to enhance the rehydration of peptide spots that might be hydrophobic. The peptides spotted onto the membranes were activated by incubating in 3 mL of 70% ethanol for five mins. The membranes were subsequently washed three times, 10 minutes each, in 10 mL TBS (Tris Buffered Saline; 8 g NaCl, 0.2 g KCl and 6.1 g Tris Base into 1000 mL of milliQ water, pH 7) with gentle rocking. Membrane blocking was performed by incubating in 10 mL casein-based membrane blocking buffer (MBS; Sigma-Aldrich) overnight at 4° C. The following day, the membranes were washed twice, 10 minutes each, in 10 mL TBS-T (TBS+0.05% Tween-20; pH 7).
(§5) Ligands used to test binding to VN-peptides were IGFBP-3, IGFBP-5 and IGF-II. For ligand binding, four separate solutions of 1 μg/mL ligand in 10 mL MBS buffer were prepared and each membrane was incubated in one of the four ligand solutions overnight at 4° C., with gentle rocking. […] The following day, the membranes were washed three times, 10 minutes each, in 10 mL TBS-T. […]

IGFBP-5 = target: T2, IGFBP-5 (Homo sapiens, UniProt P24593); experiment: VN-peptide array: binding of IGFBP-5 to immobilized overlapping 16-mer VN peptides; conditions: spot stronger than negative controls = positive hit
T2 construct: purchased GroPep
T2 sequence (P24593 21-272): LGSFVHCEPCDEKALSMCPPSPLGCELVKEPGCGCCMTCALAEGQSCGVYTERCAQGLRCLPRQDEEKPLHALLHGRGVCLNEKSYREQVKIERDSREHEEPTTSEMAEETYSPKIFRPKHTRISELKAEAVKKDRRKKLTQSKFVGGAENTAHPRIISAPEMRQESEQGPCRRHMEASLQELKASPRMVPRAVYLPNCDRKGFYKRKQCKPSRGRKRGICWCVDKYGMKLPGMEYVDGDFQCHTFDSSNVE
Description: as §1
The entire VN protein sequence, excluding the signal peptide (residues 1-19), was divided into overlapping 16-mer peptides with 3 amino acid (AA) frameshift/offset. […]

IGF-II = target: T3, IGF-II (Homo sapiens, UniProt P01344); experiment: VN-peptide array: binding of IGF-II to immobilized overlapping 16-mer VN peptides; conditions: spot stronger than negative controls = positive hit
T3 construct: purchased GroPep
T3 sequence (P01344 25-91 limits assumed): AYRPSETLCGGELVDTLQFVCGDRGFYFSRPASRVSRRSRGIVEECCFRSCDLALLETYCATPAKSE
Description: as §1, §2, §3, §4, §5

MCF-7 cells = experiment: Transwell migration assay, IGF-I+IGFBP-3+VN (TRI)-stimulated MCF-7 cell migration; assay type: cell-based, human
Description: FIG. 6 is a graphical representation showing MCF-7 cell migration in response to VN peptides. MCF-7 cells were seeded onto the upper-surface of a Transwell inserts coated on the under-surface with treatments containing IGF-I+IGFBP-3+VN (TRI; 10 nM) with or without increasing concentrations of either peptide P7, P8 or Pneg. Migration was assessed after 15 hours. Data is represented as percentage of change in migration compared to the TRI only control. Error bars indicate standard error mean.
This assay has been repeated three times with treatments tested in triplicate wells in each replicate experiment.
The breast cancer epithelial cell line MCF-7 was used for this assay. Migration was assessed by measuring relative number of cells migrating through 8-μm pore Transwell membranes in response to substrate-bond proteins complexes. IGFBP-3 was allowed to bind either peptide P7, P8 or a combination of P7 and P8 for 2 hours. IGF-I was later added to this protein mix which was then added to Transwells pre-coated with VN. Post-overnight incubation, unbound proteins were removed, Transwells washed twice and cells seeded onto the upper chamber. Cells migrated to the under-surface over 15 hours were indirectly quantified using crystal violet staining.

[1] = increasing peptide concentrations added to TRI (IGF-I+IGFBP-3+VN; 10 nM), 15 hours

T1 sequence (P17936 28-291): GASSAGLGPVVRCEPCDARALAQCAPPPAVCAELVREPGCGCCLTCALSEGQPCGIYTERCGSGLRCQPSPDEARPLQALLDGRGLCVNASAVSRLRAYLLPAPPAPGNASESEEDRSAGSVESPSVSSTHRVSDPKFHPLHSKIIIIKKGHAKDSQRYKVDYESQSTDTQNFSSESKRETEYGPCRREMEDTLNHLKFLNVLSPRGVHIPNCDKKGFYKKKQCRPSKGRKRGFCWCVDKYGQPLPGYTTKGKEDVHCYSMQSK

Row | Sequence | Binding of IGFBP-3 on VN-peptide array (positive spot or not) (IGFBP-3) | Binding of IGFBP-5 on VN-peptide array (positive spot or not) (IGFBP-5) | Binding of IGF-II on VN-peptide array (positive spot or not) (IGF-II) | Inhibition of TRI-stimulated MCF-7 cell migration (MCF-7 cells; [1]) | Inhibition of TRI-stimulated MCF-7 cell migration (MCF-7 cells; 30 nM peptide dose, TRI 10 nM, 15 hours (most significant inhibition))
1 | KTYLFKGSQYWRFEDG [Neg, reference compound] | did not show any binding | did not show any binding | did not show any binding | no inhibition of cell migration was observed | 
2 | LFSSEESNLGANNYDDYRMDWL (listed as Homo sapiens) [Peptide P7, human VN motif 7 mimic] | does not bind | does not bind | binds | dose dependent inhibition | returned to the ‘VN only’ treatment levels

Source: US10106582B2, “Complex-formation-modulating agents and uses therefor” (Factor Therapeutics Limited, priority 2012, dated 2018)
